Results from article PMC8902620, “Oligomerization of DNA replication regulatory protein RADX is essential to maintain replication fork stability” (The Journal of Biological Chemistry, 2022).
Changes are numbered by the printed parent chain.

How the values were obtained:
[1] = target: T1, full-length RADX, wild type, tagged with mCherry-FLAG or with GFP-HA (human, UniProt Q6NSI4 1-855); experiment: co-IP; purified mCherry-FLAG proteins mixed with purified GFP-HA-RADX and captured on GFP-trap magnetic agarose beads, 1 h at 4 °C; 50 mM Tris pH 7.5, 250 mM NaCl, 10% glycerol, 0.05% NP-40; immunoblot; conditions: both partners purified
T1 construct: RADX (cxorf57), human, full length; Two differently tagged copies of the same protein, written as one molecule; The GFP-HA copy is the one captured on GFP beads in the tests with purified proteins; The mCherry-FLAG copy is the one fished out there, and is the bait of the FLAG co-IP from lysate; also called mCherry-FLAG-RADX; m-Cherry-FLAG-RADX; source: HEK293T, transfected, in lysate; HEK293T, …

[2] = target: the molecule itself; experiment: SEC; purified MBP-RADX on Superdex 200 Increase 10/300 GL; peak fractions pooled and reapplied; 50 mM Tris pH 7.5, 300 mM NaCl, 10% glycerol, 1 mM DTT; size by molecular weight standards

B1: mCherry-FLAG-RADX C-terminal fragment (675–855) (domain or fragment, human, UniProt Q6NSI4 675-855, looked up)
chain: TISDRWESQLWREKKFGLIDHLHYSRVYPESIPRKFMFEHRKFLSDQYNSQPAKYVPPEGRPPKLDDFKSARSLGHFEVTILGLNHEIAIDVAFLPMYCPEDIRTSQIDTLLTSMNYSCAYPQDTTGNDRLPGPRAVAGDIIKAATELDRVHIVGILDICNLGNNKVEVYLHKIYSPENTS
notes: also called pTM67; source: HEK293T, purified (anti-FLAG M2 beads, 3x FLAG peptide, Superdex 200)
binding result [1]: binds

B2: mCherry-FLAG-RADX domain 5 (744–855) (domain or fragment, human, UniProt Q6NSI4 744-855, looked up)
chain: SARSLGHFEVTILGLNHEIAIDVAFLPMYCPEDIRTSQIDTLLTSMNYSCAYPQDTTGNDRLPGPRAVAGDIIKAATELDRVHIVGILDICNLGNNKVEVYLHKIYSPENTS
notes: also called pTM44; source: HEK293T, purified (anti-FLAG M2 beads, 3x FLAG peptide, Superdex 200)
binding result [1]: binds

B3: mCherry-FLAG-RADX N-terminal fragment (2–675) (domain or fragment, human, UniProt Q6NSI4 2-675, looked up)
chain: SGESGQPEAGPSHAGLDWPNPERNRAGVPGGVIRRAGSQGPRSWIQKVLEQIMDSPRQCVTPSEVVPVTVLAVQRYLLEDEPRDTVPKPPLYCYDVTISDGVYQEKCYLDPSLNSLVYQNILKVGIQMRISRVSCLYNEKRIGQGILCIDNVHCGETSDSISLETPFRNRAHQEKPERPLRGGKSHYLALWNNEDPYGDIWLTDKQPEEHNFSDTKIISLSHLEMTWTNRRNFPALLVRILHKSKLRYYGKPDKKMIEPYQTFLEVADSSGTVSVIMWNALCPEWYKSLRVGLVLLLQDYSVKKSYPFRIQPVPVDPQIKLISTMEICLNLRDPPTNIIIIPEKQVKPEWRLPKLNHRFTTRSELDDMPENCICDVIGLLVFVGRVQRSKKKENREDFWSYRWIHIADGTSEQPFIVELFSTSQPEIFENIYPMAYFVCTQLKVVRNDNQVPKLLYLTTTNESGVFITGHRGQPYTYDAKVKNFIQWIRTKSDSGEQKNMVIGGYYPYPPVPETFSKYSSSIKVESLLTAISEVRKEIEDLQYREQKRIAIQGIITAIKYIPHSSATESASASETLRNANRPSTSQAARVEIQERNGKRHQDDEPVNSQYFQTTSTNLSLSNKIRILQGPHANPVAVPQPGASVQTKGIKPGMPSIFNRRANINANLQGKARKT
notes: also called pTM59; source: HEK293T, purified (anti-FLAG M2 beads, 3x FLAG peptide, Superdex 200)
binding result [1]: binds

B4: MBP-RADX (maltose-binding protein-tagged RADX) (natural protein, human, UniProt Q6NSI4 1-855, looked up)
chain: MSGESGQPEAGPSHAGLDWPNPERNRAGVPGGVIRRAGSQGPRSWIQKVLEQIMDSPRQCVTPSEVVPVTVLAVQRYLLEDEPRDTVPKPPLYCYDVTISDGVYQEKCYLDPSLNSLVYQNILKVGIQMRISRVSCLYNEKRIGQGILCIDNVHCGETSDSISLETPFRNRAHQEKPERPLRGGKSHYLALWNNEDPYGDIWLTDKQPEEHNFSDTKIISLSHLEMTWTNRRNFPALLVRILHKSKLRYYGKPDKKMIEPYQTFLEVADSSGTVSVIMWNALCPEWYKSLRVGLVLLLQDYSVKKSYPFRIQPVPVDPQIKLISTMEICLNLRDPPTNIIIIPEKQVKPEWRLPKLNHRFTTRSELDDMPENCICDVIGLLVFVGRVQRSKKKENREDFWSYRWIHIADGTSEQPFIVELFSTSQPEIFENIYPMAYFVCTQLKVVRNDNQVPKLLYLTTTNESGVFITGHRGQPYTYDAKVKNFIQWIRTKSDSGEQKNMVIGGYYPYPPVPETFSKYSSSIKVESLLTAISEVRKEIEDLQYREQKRIAIQGIITAIKYIPHSSATESASASETLRNANRPSTSQAARVEIQERNGKRHQDDEPVNSQYFQTTSTNLSLSNKIRILQGPHANPVAVPQPGASVQTKGIKPGMPSIFNRRANINANLQGKARKTISDRWESQLWREKKFGLIDHLHYSRVYPESIPRKFMFEHRKFLSDQYNSQPAKYVPPEGRPPKLDDFKSARSLGHFEVTILGLNHEIAIDVAFLPMYCPEDIRTSQIDTLLTSMNYSCAYPQDTTGNDRLPGPRAVAGDIIKAATELDRVHIVGILDICNLGNNKVEVYLHKIYSPENTS
notes: RADX (cxorf57), human; also called MBP-tagged RADX; cxorf57; source: insect cells, purified
stoichiometry N [2]: ~2

B5: mCherry-FLAG-RADX Y849A (natural protein, human, UniProt Q6NSI4 1-855, looked up)
chain: B4 chain with Y849A
notes: RADX, human, full length with one point mutation; also called pTM158; source: HEK293T, purified (anti-FLAG M2 beads, 3x FLAG peptide, Superdex 200)
binding result [1]: binds
